The source of these data is patent US20040224362A1.

This assay addresses anti-FLAG M2 mouse monoclonal IgG1 (Sigma-Aldrich PN F-3165). Nature of the assay: capture on a 1 m Protein G capillary, elution with 14.7 mM phosphoric acid pH 2.2, Bradford assay at 595 nm.

As for “Protein G (CalBiochem, San Diego, Calif., PN 539303) (from UniProt P19909 303-497)”, the amount of IgG trapped and eluted was 2.5 µg.
